What follows are substances tested against HLA-A*02:01 (Homo sapiens, UniProt P04439, D140Y/D185E/D98H/E176V/E277Q/G131W/G231S/I119V/I121R/I166T/I218V/L300P/L318F/N151K/N90K/P208A/P217A/Q86G/Q94H/R138H/R169H/T345S) (assay: MHC binding assay (UV-ligand exchange, β2m ELISA, peptide exchange yield)). Conditions: MHC class I binding score; binding to HLA-A*02:01 ranged by peptide exchange yield (UV-ligand exchange, β2m ELISA).
Procedure, shortened: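 Binding is expressed as peptide exchange yield: stabilized MHC complexes were quantified by β2m ELISA, with a 450 nm TMB read-out on streptavidin-coated plates. Complexes came from UV-ligand exchange, where UV irradiation cleaves a photolabile peptide so the candidate peptide can load.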

Q: How did the Peptide exchange turn out when “304 (MTLGQIYYL; listed as Homo sapiens) [compound 304]” was run?
A: ″+++″ (≧50% = +++)

Q: For “305 (SIANFSEFYV; listed as Homo sapiens) [compound 305]”, which Peptide exchange is on record?
A: ″++++″ (≧75% = ++++)

Q: How did the Peptide exchange turn out when “306 (ALVNVQIPL; listed as Homo sapiens) [compound 306]” was run?
A: ″+++″ (≧50% = +++)

Q: Which Peptide exchange does the source give for “307 (ALPVSLPQI; listed as Homo sapiens) [compound 307]” here?
A: ″+++″ (≧50% = +++)

Q: “308 (SQYSGQLHEV; listed as Homo sapiens) [compound 308]” was tested. Which Peptide exchange did it give?
A: ″+++″ (≧50% = +++)

Q: For “309 (GLFDGVPTTA; listed as Homo sapiens) [compound 309]”, which Peptide exchange is on record?
A: ″+++″ (≧50% = +++)

Q: “310 (FLVDTPLARA; listed as Homo sapiens) [compound 310]” was tested. Which Peptide exchange did it give?
A: ″++++″ (≧75% = ++++)

Q: For “311 (RLYTGMHTV; listed as Homo sapiens) [compound 311]”, which Peptide exchange is on record?
A: ″+++″ (≧50% = +++)

Q: For “312 (IISDLTIAL; listed as Homo sapiens) [compound 312]”, which Peptide exchange is on record?
A: ″+++″ (≧50% = +++)

Q: With “313 (VLFDDELLMV; listed as Homo sapiens) [compound 313]” as the substance, how does the Peptide exchange read?
A: ″+++″ (≧50% = +++)

Q: For “314 (ALIAEGIALV; listed as Homo sapiens) [compound 314]”, which Peptide exchange is on record?
A: ″+++″ (≧50% = +++)

Q: With “315 (YLQDVVEQA; listed as Homo sapiens) [compound 315]” as the substance, how does the Peptide exchange read?
A: ″+++″ (≧50% = +++)

Q: With “316 (ILLERLWYV; listed as Homo sapiens) [compound 316]” as the substance, how does the Peptide exchange read?
A: ″+++″ (≧50% = +++)

Q: With “317 (SLAALVVHV; listed as Homo sapiens) [compound 317]” as the substance, how does the Peptide exchange read?
A: ″+++″ (≧50% = +++)

Q: “318 (GLINTGVLSV; listed as Homo sapiens) [compound 318]” was tested. Which Peptide exchange did it give?
A: ″++″ (≧20% = ++)

Q: With “320 (KMFEFVEPLL; listed as Homo sapiens) [compound 320]” as the substance, how does the Peptide exchange read?
A: ″++++″ (≧75% = ++++)

Q: For “321 (GLFEDVTQPGILL; listed as Homo sapiens) [compound 321]”, which Peptide exchange is on record?
A: ″++++″ (≧75% = ++++)

Q: With “322 (TLMTSLPAL; listed as Homo sapiens) [compound 322]” as the substance, how does the Peptide exchange read?
A: ″+++″ (≧50% = +++)

Q: For “324 (FLYDEIEAEV; listed as Homo sapiens) [compound 324]”, which Peptide exchange is on record?
A: ″+++″ (≧50% = +++)

Q: With “325 (FIMPATVADATAV; listed as Homo sapiens) [compound 325]” as the substance, how does the Peptide exchange read?
A: ″+++″ (≧50% = +++)

Q: “326 (FLPEALDFV; listed as Homo sapiens) [compound 326]” was tested. Which Peptide exchange did it give?
A: ″+++″ (≧50% = +++)

Q: Which Peptide exchange does the source give for “327 (GLAPFTEGISFV; listed as Homo sapiens) [compound 327]” here?
A: ″+++″ (≧50% = +++)

Q: With “328 (ALNDQVFEI; listed as Homo sapiens) [compound 328]” as the substance, how does the Peptide exchange read?
A: ″+++″ (≧50% = +++)

Q: How did the Peptide exchange turn out when “329 (FLVTLNNVEV; listed as Homo sapiens) [compound 329]” was run?
A: ″++++″ (≧75% = ++++)

Q: “330 (QLALKVEGV; listed as Homo sapiens) [compound 330]” was tested. Which Peptide exchange did it give?
A: ″+++″ (≧50% = +++)

Q: With “331 (KVDTVWVNV; listed as Homo sapiens) [compound 331]” as the substance, how does the Peptide exchange read?
A: ″+++″ (≧50% = +++)

Q: Which Peptide exchange does the source give for “332 (YLISELEAA; listed as Homo sapiens) [compound 332]” here?
A: ″+++″ (≧50% = +++)

Q: With “333 (FLPDANSSV; listed as Homo sapiens) [compound 333]” as the substance, how does the Peptide exchange read?
A: ″++″ (≧20% = ++)

Q: For “334 (TLTKVLVAL; listed as Homo sapiens) [compound 334]”, which Peptide exchange is on record?
A: ″+++″ (≧50% = +++)

Q: How did the Peptide exchange turn out when “335 (YSLSSVVTV; listed as Homo sapiens) [compound 335]” was run?
A: ″+++″ (≧50% = +++)

Q: Which Peptide exchange does the source give for “336 (ILLTAIVQV; listed as Homo sapiens) [compound 336]” here?
A: ″+++″ (≧50% = +++)

Q: How did the Peptide exchange turn out when “337 (HLLSELEAAPYL; listed as Homo sapiens) [compound 337]” was run?
A: ″++++″ (≧75% = ++++)

— patent publication US20170037111A1, “Novel peptides and combination of peptides for use in immunotherapy against ovarian cancer and other cancers” (immatics biotechnologies GmbH, priority 2015, published 2017)
